Experiment: soluble on expression in E. coli; label from the status in PepcDB or PDB records

Row | Sequence | soluble on expression in E. coli
1 | MGSDKIHHHHHHMTIIAGTVVKGKQLGRKLGFPTANVDAKIHGLRNGVYGVLATVNHQFHLGVMNIGVKPTVGSNLEKTLEIFLFDFHRDIYGEKIECSILFKIREERRFDSLESLTKQIKKDISCVAKRFELIGIMAPNKKESLLSHQELNLPDLCFYKKCNNLYGVNRGVYNVIDNWFFEYGITQVAYRRIYILSFLSFLKEDNPKVSSKYIRFGAGGLADKLNRFISSYVEESEENILG | not soluble
2 | DHAAPLIFLIAGTGAPYNSTINEFLKKLYYGAGYHVVQLSSPTSYDFMSSASRFATPGVSTEDAEDLYRVMQAIRAQQAQLPVTDYYLTGYSLGALNAAFVSKLDETRRSFNFKKVLLLNPPVNLYTSISNLDKLVQTNVKGINNTTTFYELVLAKLTRYFRQKGYIDLNDALLFDFQQSKQHLTNEQMAMLIGTSFRFSSADIAFTSDLINRRGLIIPPKFPISEGTSLTPFLKRALQCDFDCYLTEQVIPMWRARTDGGSLLQLVDQVSLYALKDYLHSNTKIAVMHNADDVILGAGDLGFLRKTFGDRLTVYPYGGHCGNLNYRVNTDAMLEFFRG | not soluble
3 | MFVDREEELKALNEKLDSNNFEFIVIYGRRRIGKTKLALKSVENREHIYYLAVEGDNLKHFKRYASKVEPTIEYAKEDWEAYFNFLKDKIIIIDEFPNLIKENPNVLSLFQRIVDIHLKNTKTKLIILGSSISMMGEKVLSYKSPLYGRKTGVLKIKPLKFKHLKEFFPKAIWEELVEIYGFADGIPYYLEKVKLPFWDYLDKEIKRVDSFLRYEVDFLMKYEFEEPTTYKKILEAIAFGNHTLGEIKNYLGFKHSDLTPYLKNLIEVEFIERQTPITESVKSKKGRYYIKDNFIAFYFRYIFPNLSAIEEGIFDIEEIKADYNQYLGFVFEKVAKEFLIELNKMNKLPFKFLKIGRWWHRGEEIDLIALNDNDKKALFVEVKWKDLKDRDVKKIYRDLYRKSKLVGLDDYEKYYAIVGKKIESKENGDCLLFDLEDFSLEHHHHHH | soluble
4 | MGSDKIHHHHHHMSASSNRTIPVFQLYGETHQWPTPDLLHCESIAERSRLHDWHIRPHRHADLVHVLHIAHGDVNLTFEEGAQRLTGPLLIVVPAMTVHAFRFSRDVDGHIVTLAMPLARHIADTLHPQGQILARAAFYPLADQPERAPIATLVDQLDAEYRHPADGRDALLEALLNSLLVLASRRATRRQARPASRQHERGEAHLARFQQLIEAHYHQQPSIPEFAERLGISSAHLSAVCQRLAGRSAQQLLHERVLLEAKRHLTYTNMTIGQVAERLGFKEPAYFTRFFKRHVACSPKEFRQRQA | not soluble
5 | MSLDQEQNVSLLVAGDHELLRDAISEILRREGGFSVEVTGSREGVLKQIEERGGFDVILLDLQMPGMSGLDSLREVATSNANGAVAILAGELTRDVVMSAFKAGARGYIPKTLPLRALPIALRLIASGESYVPAWLTNGGGTTQADGPSFDLLPEELQILEEVSDGRTNKQIAFTLNVTEGAIKMKMRAICMKLGAKNRTHAVVIARQHMMLREGHHHHHH | soluble
6 | MAKGIMLHEVGEQVDQYLLIKSSTKGIASNGKPFLTLMLQDQSGDIEAKLWDAKQSDEVTYAPQTIVKVVGDVHHYRGRTQLKLRNIRPVSEQENVNIDDFLETAPIPKNEMMDTITQYIFEMKNPNIQRITRFLVKKHEAEFMDYPAATKNHHEFVSGLAYHVVSMLNLAKAIADLYPSLDRDLLYAGVILHDLGKVKELSGPVSTSYTVEGNLLGHISIMVTELSKAAEELQIDSEEVLILQHLILSHHGKAEWGSPKPPMVKEAEILHYIDNLDAKMNMMDRALERVKPGEYTERVFALENRSFYKPTFHK | not soluble
7 | MAHHHHHHMESNNHTTDLPSHAPGVEAAPIAAATPPLTGLAEGAVVTEGASHPKMAAAEPSEATATESPPSPHSTGEAKTQNALAALMSVLDNDEAARRGGTSLRSLQKMCMRVPQLSTELTRPQRFQLYCLLLLEDGDDPAVPGGAAGQEDWTTYTKQALETHVHMAKQAAALFPPPSTSPPTNSPASSTAWAPMRPFTSIRQ | soluble
8 | MGQLPPRARAFFAAQRPLRVLMPGCGSAADLPPLLAMGHDVLAVDFSEAAIELAARQWPEAAGRLLLADFFQLQMPAFDCLFERAFLCALPVGMRSQYAERVAALIAPGGALAGVFFVADTERGPPFGMQAEALRELLSPWFELEEDLALDESVAVFRNRERWMVWRRRGLEHHHHHH | not soluble
9 | GPLGSDFPQHSQHVLEQLNQQRQLGLLCDCTFVVDGVHFKAHKAVLAACSEYFKMLFVDQKDVVHLDISNAAGLGQVLEFMYTAKLSLSPENVDDVLAVATFLQMQDIITACHALKSLA | soluble
10 | ISAVIVGTAEDIYSRVLALMCQRKGAVSICLQHGALMGDEAFIPVFTTYQAVFGAYEAEWFIRKGCKPEQILVTGHPRFDQIFNRTPMDMSIFYRKLAFQPTKKIVLIATQPFSEDFYSGVLQGLSDQKQLQIIIKPHPWEIGKNKLDLYHEAAKKHQACRVIKKELELYDLLPYVDAAVTQTSTVGLEAMLFQKPVLIGKSSGNRSYPYYESLGDFMFDQPDELAHTLVEVLRSP | not soluble
11 | MKVVGVTSCIAGLAHTPMAAKALEKAGVKLGHDVKIEQQGAMGTIDEITPAEVSAADVVIIAADKVIDGEDRFKGKPVVRVKIGQCVANGEAVLSKVVAAIEARKQKEAN | not soluble
12 | GHMAAPILKDVVAYVEVWSSNGTENYSKTFTTQLVDMGAKVSKTFNKQVTHVIFKDGYQSTWDKAQKRGVKLVSVLWVEKCRTAGAHIDESLFPAANMNEHLS | soluble
13 | RPRNALLLLADDGGFESGAYNNSAIATPHLDALARRSLLFRNAFTSVSSCSPSRASLLTGLPQHQNGMYGLHQDVHHFNSFDKVRSLPLLLSQAGVRTGIIGKKHVGPETVYPFDFAYTEENGSVLQVGRNITRIKLLVRKFLQTQDDRPFFLYVAFHDPHRCGHSQPQYGTFCEKFGNGESGMGRIPDWTPQAYDPLDVLVPYFVPNTPAARADLAAQYTTVGRMDQGVGLVLQELRDAGVLNDTLVIFTSDNGIPFPSGRTNLYWPGTAEPLLVSSPEHPKRWGQVSEAYVSLLDLTPTILDWFSIPYPSYAIFGSKTIHLTGRSLLPALEAEPLWATVFGSQSHHEVTMSYPMRSVQHRHFRLVHNLNFKMPFPIDQDFYVSPTFQDLLNRTTAGQPTGWYKDLRHYYYRARWELYDRSRDPHETQNLATDPRFAQLLEMLRDQLAKWQWETHDPWVCAPDGVLEEKLSPQCQPLHNEL | soluble
14 | MAVAFYIPDQATLLREAEQKEQQILRLRESQWRFLATVVLETLRQYTSCHPKTGRKSGKYRKPSQ | not soluble
15 | MDLLGKLFSRALKLSTLPTKKKRDAFSQQRKVLKKLLKKSANTQFGLRFNFYEILVQFSSGNKKVFYDFYKRRVPVYTYNTLYNEWWYRLKEGEADVTWPGKVQYFALSSGTSDASTKYIPITEQFLKANKKIGIRQLLSLAHYKLPKDLLGKGILMLGGSTHLHKTETYYEGDLSGIQASKIPFWFQYFYKPGSRIARNRDWESKLNDIVESAPDWDIGFIVGVPAWLQILLERIIARYQLKTIHDIWPNLTVFVHGGVAFDPYRKGFEKLLAKPIIYIETYLASEGFIAYQAGPGRKGMKLILDNGIFFEFVPFNEQNINASGDIVVNPKTLMIHEVEEGVDYVLLVSTCAGTWRYMIGDVIRFVDKAQAEIIITGRTKHFISLCGEHLSVDNMNQAIKLVAEELNIIIKEFTVSGIAHDTLFAHQWYIGTDHVIDPVVVSDLLDEKLKLLNDDYRVERTSALKEIFVTILPSQSFYDWMRYRGKEGGQNKFPRVLNKKLHEDWKAFLNQ | not soluble
16 | MKKICMKNGMKIIYEYRESDITSFCVAFNAGAEREGKKERGLAHVVEHCIFKGTKKRSEAQINSEFDEIFGFNNAMTNFPYVIYYGTTLSKDFEKGFELYSDIIVNPTFSEEGFEEEKSIICEELTEWKDDKQQFCEDELLKNSFSNIRLKECIIGNEKNIKDFSIDELRKFYKKYYTSDNCVIGIVTSLKEEEVTDIINNYMTLSKREKPSLFDYEYEKNTSGIFTSKMDVKGAVIQYLFPIYKLKDDEIKALRAFNVIFGEGTSSMLYDKIRTKYGLAYDIYSKINNDGGIKLFYIGLGTASENFDKSIEFVNDTICEAKNLKGQFSSDKLLKIEKTMSLKRSLKLERSIQLAKELATYELMYGKAENVYDEVKDINLLNEDYIIEVVRSVLVTPSIQVVKPNK | not soluble

From the DeepSol protein solubility set
